Experimental data from patent US20080039419.

Key:
[1] = biological target: T1, synthetic peptide representing the β3 integrin cytoplasmic domain, P05106
T1 chain: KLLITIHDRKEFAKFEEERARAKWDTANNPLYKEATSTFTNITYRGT

[2] = biological target: T2, synthetic peptide representing the β1 integrin cytoplasmic domain, P05556
T2 chain: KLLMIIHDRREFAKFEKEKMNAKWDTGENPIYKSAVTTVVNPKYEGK

B1: integrin linked kinase (ILK), full length (protein)
chain: MDDIFTQCREGNAVAVRLWLDNTENDLNQGDDHGFSPLHWACREGRSAVVEMLIMRGARINVMNRGDDTPLHLAASHGHRDIVQKLLQYKADINAVNEHGNVPLHYACFWGQDQVAEDLVANGALVSICNKYGEMPVDKAKAPLRELLRERAEKMGQNLNRIPYKDTFWKGTTRTRPRNGTLNKHSGIDFKQLNFLTKLNENHSGELWKGRWQGNDIVVKVLKVRDWSTRKSRDFNEECPRLRIFSHPNVLPVLGACQSPPAPHPTLITHWMPYGSLYNVLHEGTNFVVDQSQAVKFALDMARGMAFLHTLEPLIPRHALNSRSVMIDEDMTARISMADVKFSFQCPGRMYAPAWVAPEALQKKPEDTNRRSADMWSFAVLLWELVTREVPFADLSNMEIGMKVALEGLRPTIPPGISPHVCKLMKICMNEDPAKRPKFDMIVPILEKMQDK
[1]
  phosphorylation of the synthetic peptide in ILK immune complex kinase assay (91-3 immunoprecipitates of PC3 lysates): a similar peptide representing the β3 cytoplasmic domain was not detectably labeled by P59ILK
[2]
  autophosphorylation of ILK in immune complex kinase assay: The β1 peptide selectively inhibited autophosphorylation of ILK in these reactions
  phosphorylation of the synthetic peptide in ILK immune complex kinase assay (91-3 immunoprecipitates of PC3 lysates): The β1 peptide was labeled on serine and threonine residues, with approximately equal stoichiometry

B2: GST-ILK^232 (GST fusion of ILK amino acid residues 132-451) (protein)
chain: YGEMPVDKAKAPLRELLRERAEKMGQNLNRIPYKDTFWKGTTRTRPRNGTLNKHSGIDFKQLNFLTKLNENHSGELWKGRWQGNDIVVKVLKVRDWSTRKSRDFNEECPRLRIFSHPNVLPVLGACQSPPAPHPTLITHWMPYGSLYNVLHEGTNFVVDQSQAVKFALDMARGMAFLHTLEPLIPRHALNSRSVMIDEDMTARISMADVKFSFQCPGRMYAPAWVAPEALQKKPEDTNRRSADMWSFAVLLWELVTREVPFADLSNMEIGMKVALEGLRPTIPPGISPHVCKLMKICMNEDPAKRPKFDMIVPILEKMQD
[1]
  phosphorylation of the synthetic peptide by recombinant kinase in vitro: The results demonstrating phosphorylation of synthetic β peptides by endogenous ILK are identical to those seen with recombinant GST-ILK^232
[2]
  phosphorylation of the synthetic peptide by recombinant kinase in vitro: The results demonstrating phosphorylation of synthetic β peptides by endogenous ILK are identical to those seen with recombinant GST-ILK^232
